Where no end group is shown, it is not given here. The star is where a group is joined. FITC = O=C1OC2(c3ccc(O)cc3Oc3cc(O)ccc32)c2ccc(NC(=S)*)cc21; βAla = NCCC(=O)O

First the molecules themselves.
B1: His-tag–GB1–MLL TAD (wild type) (peptide)
chain: GNILPSDIMDFVLKNTPSMQALGESPESY
notes: MLL TAD, residues 2842-2869 of human MLL; Tyr residue attached at the C-terminus for concentration determination by UV absorption; Used in ITC and immobilised in SPR; also called wild-type MLL TAD; WT; source: E. coli BL21(DE3), purified (Ni-NTA); not shown: His6, N-terminal, kept
B2: His-tag–GB1–MLL TAD T2857W (peptide)
chain: GNILPSDIMDFVLKNWPSMQALGESPESY
notes: MLL TAD, residues 2842-2869 of human MLL, with the substitution; Tyr residue attached at the C-terminus for concentration determination by UV absorption; Used in ITC; also called designed T2857W peptide; T2857W mutant of the MLL TAD peptide; source: E. coli BL21(DE3), purified (Ni-NTA); not shown: His6, N-terminal, kept
B3: designed T2857W peptide used as inhibitor in fluorescence polarization (peptide)
chain: GNILPSDIMDFVLKNWPSMQALGESPESY
notes: MLL TAD, residues 2842-2869 of human MLL, with the substitution; Tyr residue attached at the C-terminus for concentration determination by UV absorption; also called designed peptide; source: E. coli BL21(DE3), purified (Ni-NTA)
B4: wild-type MLL TAD peptide used as inhibitor in fluorescence polarization (peptide)
chain: GNILPSDIMDFVLKNTPSMQALGESPESY
notes: MLL TAD, residues 2842-2869 of human MLL; Tyr residue attached at the C-terminus for concentration determination by UV absorption; also called wild-type peptide; WT; source: E. coli BL21(DE3), purified (Ni-NTA)
B5: MLL TAD peptide D2851L without His-tag–GB1 (peptide)
chain: GNILPSDIMLFVLKNTPSMQALGESPESY
notes: MLL TAD, residues 2842-2869 of human MLL, with the substitution; Tyr residue attached at the C-terminus for concentration determination by UV absorption; One of the four mutants used without His-tag–GB1 in ITC as well as in CD; source: E. coli BL21(DE3), purified (Ni-NTA, thrombin digestion on the column, anion exchange); not shown: His6, N-terminal, cleaved
B6: His-tag–GB1–MLL TAD K2855R/T2857L (peptide)
chain: GNILPSDIMDFVLRNLPSMQALGESPESY
notes: MLL TAD, residues 2842-2869 of human MLL, with the substitutions; Tyr residue attached at the C-terminus for concentration determination by UV absorption; also called K2855R/T2857L double mutant; source: E. coli BL21(DE3), purified (Ni-NTA); not shown: His6, N-terminal, kept
B7: His-tag–GB1–MLL TAD K2855R/T2857W (peptide)
chain: GNILPSDIMDFVLRNWPSMQALGESPESY
notes: MLL TAD, residues 2842-2869 of human MLL, with the substitutions; Tyr residue attached at the C-terminus for concentration determination by UV absorption; also called K2855R/T2857W double mutant; source: E. coli BL21(DE3), purified (Ni-NTA); not shown: His6, N-terminal, kept
B8: His-tag–GB1–MLL TAD T2857F (peptide)
chain: GNILPSDIMDFVLKNFPSMQALGESPESY
notes: MLL TAD, residues 2842-2869 of human MLL, with the substitution; Tyr residue attached at the C-terminus for concentration determination by UV absorption; source: E. coli BL21(DE3), purified (Ni-NTA); not shown: His6, N-terminal, kept
B9: MLL TAD peptide T2857I without His-tag–GB1 (peptide)
chain: GNILPSDIMDFVLKNIPSMQALGESPESY
notes: as for B5
B10: His-tag–GB1–MLL TAD T2857K (peptide)
chain: GNILPSDIMDFVLKNKPSMQALGESPESY
notes: as for B8
B11: MLL TAD peptide K2855R without His-tag–GB1 (peptide)
chain: GNILPSDIMDFVLRNTPSMQALGESPESY
notes: as for B5
B12: His-tag–GB1–MLL TAD T2857A (peptide)
chain: GNILPSDIMDFVLKNAPSMQALGESPESY
notes: as for B8
B13: MLL TAD peptide I2849L without His-tag–GB1 (peptide)
chain: GNILPSDLMDFVLKNTPSMQALGESPESY
notes: as for B5
B14: His-tag–GB1–MLL TAD T2857R (peptide)
chain: GNILPSDIMDFVLKNRPSMQALGESPESY
notes: as for B8
B15: His-tag–GB1–MLL TAD T2857L (peptide)
chain: GNILPSDIMDFVLKNLPSMQALGESPESY
notes: as for B8
B16: His-tag–GB1–MLL TAD T2857Y (peptide)
chain: GNILPSDIMDFVLKNYPSMQALGESPESY
notes: as for B8
B17: FITC-labeled c-Myb TAD peptide (peptide)
peptide: {FITC-βAla}-GYNDEDPEKEKRIKELELLLMSTENELKGQQAL
notes: first residue of the printed peptide; as far as I recall not a residue of c-Myb at this position; c-Myb TAD; 33 residues as printed; also called FITC-Myb; source: synthetic peptide, bought: Biologica Co

T1 sequence (P45481 586-672): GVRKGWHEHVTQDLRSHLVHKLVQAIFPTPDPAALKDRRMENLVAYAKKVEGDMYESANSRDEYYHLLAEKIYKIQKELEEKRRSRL

One test has as its target T1, KIX domain of CREB-binding protein (residues 586–672 of mouse CBP) (mouse, UniProt P45481 586-672).
T1 construct: KIX domain, residues 586-672 of mouse CBP; 6xHis-tag and thrombin cleavage site at the N-terminus; source: E. coli BL21(DE3)pLysS, purified (Ni-NTA, gel filtration on Superdex 200 pg)
The test can be described thus: SPR; competition: mixture of KIX (5 μM) and inhibitor (0.27–200 μM) injected over immobilised His-tag–GB1–MLL TAD; 30 °C; 20 mM sodium phosphate pH 7.0, 100 mM NaCl, 0.05% Tween 20. The note with it: both partners purified. (Surface plasmon resonance follows binding to a sensor surface in real time, without labels.)
One may read the IC50 as the concentration that gives 50% inhibition. Take B1: the IC50 is 10.4 µM.
Take B2: the half-maximal inhibitory concentration (IC50) was 5.67 µM.

A further test concerns the target T1, KIX domain of CREB-binding protein …. The test can be described thus: fluorescence polarisation; competition: inhibitor (0–200 μM) titrated into a mixture of KIX (2 μM) and FITC-Myb (25 nM); 30 °C; 20 mM sodium phosphate pH 7.0, 100 mM NaCl, 0.005% Tween 20. The note with it: both partners purified.
For B3, the IC50 is 16 µM.
The same measure, in the same setting: in the case of B4 it was 36 µM.

For another test the target is unchanged. The test can be described thus: fluorescence polarisation; competition: inhibitor (0–200 μM) titrated into a mixture of KIX (2 μM) and FITC-MLL (25 nM); 30 °C; 20 mM sodium phosphate pH 7.0, 100 mM NaCl, 0.005% Tween 20. The note with it: both partners purified. (In general: Fluorescence polarisation rises when a labelled molecule tumbles more slowly, as on binding a larger partner.)
For B3, the concentration for half-maximal inhibition (IC50) turned out to be 3.48 µM.
Consider B4, for which the half-maximal inhibitory concentration (IC50) worked out at 7.1 µM.

For the next test the target is unchanged. The test can be described thus: ITC; 600 μM MLL solution titrated into the cell containing 45 µM KIX; 30 °C; 20 mM Tris–acetate pH 7.0, 50 mM NaCl; one-site binding model. The note with it: both partners purified. Background: ITC needs no label: the signal is the heat of the interaction.
One may read the Kd as the constant that tells how readily two partners part at equilibrium. A high value points to weaker binding. The term stoichiometry N denotes the number of molecules, sites or subunits per partner or assembly. Turning to B1, binding was put at a Kd of 2.02 µM, the dH is -13.1 kcal/mol and the “stoichiometry N” value is 1.02.
B5: binding was put at a Kd of 4.8 µM, the dH was -8.8 kcal/mol and the “stoichiometry N” value amounted to 1.02.
Consider B6, for which the dissociation constant Kd was 1.72 µM, the dH is -9.5 kcal/mol and the “stoichiometry N” value stood at 1.09.
Take B7: the equilibrium dissociation constant (Kd) is 1.04 µM, the dH is -12.2 kcal/mol and the “stoichiometry N” value was found to be 1.04.
Regarding B8, the equilibrium dissociation constant (Kd) came to 2.1 µM, the dH was -11.1 kcal/mol and the “stoichiometry N” value worked out at 1.07.
For the molecule B9, the dissociation constant Kd amounted to 2.4 µM, the dH is -10 kcal/mol and the “stoichiometry N” value turned out to be 1.04.
For the molecule B10, the Kd turned out to be 4.9 µM, the dH was -11.7 kcal/mol and the “stoichiometry N” value came out at 1.02.
As to B11, the Kd was 1.5 µM, the dH is -13.8 kcal/mol and the “stoichiometry N” value was determined as 0.94.
Regarding B12, the affinity, expressed as Kd, was 2.62 µM; the dH is -11.8 kcal/mol; the “stoichiometry N” value amounted to 1.03.
For B13, binding was put at a Kd of 2.8 µM, the dH is -12.3 kcal/mol and the “stoichiometry N” value was 0.947.
Consider B2, for which the Kd was 0.95 µM, the dH is -12.8 kcal/mol and the “stoichiometry N” value amounted to 1.02.
Turning to B14, the equilibrium dissociation constant (Kd) was determined as 3 µM, the dH was -12.6 kcal/mol and the “stoichiometry N” value came out at 1.03.
In the same order, the values of B15 are 1.9 µM, -10.5 kcal/mol and 1.05.
The corresponding values for B16 are 2.28 µM, -12.3 kcal/mol and 1.02.

The target is the same in the next test. The test can be described thus: SPR; His-tag–GB1–MLL TAD immobilised on CM5 by amine coupling (77.9 RU); KIX 0.04–30 μM injected; 30 °C; 20 mM sodium phosphate pH 7.0, 100 mM NaCl, 0.05% Tween 20; equilibrium analysis. Conditions: both partners purified.
Turning to B1, the dissociation constant (Kd) was 4.94 µM.

Another test has the same target. The test can be described thus: fluorescence polarisation; 0–100 μM KIX titrated into 25 nM FITC-labeled peptide; 30 °C; 20 mM sodium phosphate pH 7.0, 100 mM NaCl, 0.005% Tween 20. The note with it: both partners purified.
With B17, the binding result was “binds”.

For the origin of these results see paper PMC10113271, “Rational peptide design for inhibition of the KIX–MLL interaction” (Scientific Reports, 2023).
